# Assay results: publication PMC8693861
# Columns and labels:
# [1] = biological target: full-length N-terminal signaling domain of human Sonic hedgehog (ShhN), residues 24-193, without lipid attachments (UniProt Q15465); test: BLI; settings: 4 μM SHH (per earlier reader's note; not printed in panel or legend); parent: est. 0.077; read off a plot
# [2] = biological target: biotinylated human HHAT-Avi-1D4 (pHR-CMV-TetO2-HHAT-wildtype-Avi-1D4) (human) (UniProt Q5VTY9); test: BLI; SHH on immobilised biotinylated HHAT-Avi-1D4, 22°C, same buffer without nhPalm-CoA
# [3] = biological target: biotinylated human HHAT-Avi-1D4 (pHR-CMV-TetO2-HHAT-wildtype-Avi-1D4) (human) (UniProt Q5VTY9); test: BLI; biotinylated HHAT-Avi-1D4 on streptavidin biosensors, 22°C, SHH in 10 mM HEPES pH 7.5, 150 mM NaCl, 0.06% DDM 40:1 CHS, 1 mM DTT, 5 mM CaCl2 with 5-10 mM nhPalm-CoA; multi-cycle kinetics, 300 s association and dissociation, 1:1.5 dilution series from 5 μM; one to two state binding model
response [1] [nm],fold reduction of binding without nhPalm-CoA against with nhPalm-CoA [2] [fold],percent reduction of binding without Palm-CoA [2] [%],Kd [3] [µM],Substance
0.011,,,,biotinylated human HHAT-Avi-1D4 (pHR-CMV-TetO2-HHAT-wildtype-Avi-1D4) (from UniProt Q5VTY9) Y382A; Y384A
,3,50,3.7,"full-length N-terminal signaling domain of human Sonic hedgehog (ShhN), residues 24-193, without lipid attachments (from UniProt Q15465 24-193) (domain or fragment)"
-0.012,,,,biotinylated human HHAT-Avi-1D4 (pHR-CMV-TetO2-HHAT-wildtype-Avi-1D4) (from UniProt Q5VTY9) E59R
